Laboratory results as given in paper PMC4852461, “A closed conformation of the Caenorhabditis elegans separase–securin complex” (Open Biology, 2016).

Molecular target: T1, strep II-tagged full-length C. elegans separase (C. elegans, UniProt G5ED39 1-1262)
T1 construct: separase, Caenorhabditis elegans, full length (residues up to 1262; molecular weight 144.2 kDa); Vector pFBDM-strepII: double strepII tag with a PreScission cleavage site; also called strep II-tagged separase; source: Sf9 insect cells, co-expressed with securin, purified as complex (StrepTactin, SEC)
T1 sequence (looked up): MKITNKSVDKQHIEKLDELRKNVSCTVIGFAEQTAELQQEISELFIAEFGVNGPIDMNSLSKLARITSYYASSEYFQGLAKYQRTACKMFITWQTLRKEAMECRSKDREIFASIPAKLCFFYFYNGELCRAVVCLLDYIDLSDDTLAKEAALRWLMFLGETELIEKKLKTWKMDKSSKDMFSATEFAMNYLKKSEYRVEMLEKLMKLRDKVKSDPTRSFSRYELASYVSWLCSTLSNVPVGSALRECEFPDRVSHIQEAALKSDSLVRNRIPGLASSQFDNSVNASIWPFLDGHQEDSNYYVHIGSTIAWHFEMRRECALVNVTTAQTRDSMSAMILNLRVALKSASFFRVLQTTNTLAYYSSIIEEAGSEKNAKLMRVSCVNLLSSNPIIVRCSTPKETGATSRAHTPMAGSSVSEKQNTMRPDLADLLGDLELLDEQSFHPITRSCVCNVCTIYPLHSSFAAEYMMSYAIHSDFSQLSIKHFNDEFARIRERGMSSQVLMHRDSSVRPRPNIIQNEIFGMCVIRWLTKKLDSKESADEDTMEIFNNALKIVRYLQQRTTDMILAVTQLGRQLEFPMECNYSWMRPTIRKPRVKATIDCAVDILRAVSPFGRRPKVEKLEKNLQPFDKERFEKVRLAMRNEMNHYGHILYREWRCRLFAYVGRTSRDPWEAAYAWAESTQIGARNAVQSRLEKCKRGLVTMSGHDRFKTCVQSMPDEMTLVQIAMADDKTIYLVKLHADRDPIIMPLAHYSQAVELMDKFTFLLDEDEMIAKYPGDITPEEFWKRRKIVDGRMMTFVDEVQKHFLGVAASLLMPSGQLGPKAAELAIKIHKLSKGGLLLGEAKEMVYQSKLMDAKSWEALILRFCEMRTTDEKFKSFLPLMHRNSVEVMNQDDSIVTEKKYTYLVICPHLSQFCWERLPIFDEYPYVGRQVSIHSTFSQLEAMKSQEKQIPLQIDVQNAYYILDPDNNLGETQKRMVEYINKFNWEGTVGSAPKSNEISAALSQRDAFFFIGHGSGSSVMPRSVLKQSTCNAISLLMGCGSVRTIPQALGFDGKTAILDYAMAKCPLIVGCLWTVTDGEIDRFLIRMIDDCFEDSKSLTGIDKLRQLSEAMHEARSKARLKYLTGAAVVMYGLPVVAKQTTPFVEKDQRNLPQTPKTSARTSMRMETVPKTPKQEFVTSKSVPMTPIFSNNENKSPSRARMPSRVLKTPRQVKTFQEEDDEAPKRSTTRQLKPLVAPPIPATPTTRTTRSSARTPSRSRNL
Assay: SEC-MALS; 1 mg/ml purified complex on Superose 6 10/300; 50 mM sodium phosphate, 100 mM NaCl, 20 mM NaF, 10% glycerol, 5 mM 2-mercaptoethanol, 3 mM sodium azide, pH 8.0
Conditions: both partners purified

stoichiometry N: 1
B1: full-length C. elegans securin (co-expressed with StrepII-tagged separase) (natural protein, UniProt Q18235 1-244, looked up)
chain: MEDLNFEERGSTQIPASLQQHFSAKLGRQNELEKTPSRGGLGLVVNSSKTPGGKSLQSLASACKVPPSTKKNTIPIAFECYEDETDDQIADVATIKKTEKHPCSPIDTANRCETFDSLAADIEDDMLNLEDQDVVLSEDRPYGDVIDPAESEAEALAELGVEEWDSYPPIDPASRIGDDFNYVLRTEDFAEEGDVKLEETRHRTVIADIDEVKMSKAERNELFSMLADDLDSYDLLAEEANLPL
notes: it may be the same construct as m2; also called securin FL; source: Sf9 insect cells, co-expressed with StrepII-separase; in soluble lysate (pull-down) and purified as complex (StrepTactin, SEC)
